Test results published in US20210221899A1 (published 2021).

T1: canine NGF (canine, UniProt Q29074 110-229 (pig entry), limits assumed)
T1 construct: The protein was secreted from CHO cells and purified; also called cNGF; canine β-NGF
T1 chain: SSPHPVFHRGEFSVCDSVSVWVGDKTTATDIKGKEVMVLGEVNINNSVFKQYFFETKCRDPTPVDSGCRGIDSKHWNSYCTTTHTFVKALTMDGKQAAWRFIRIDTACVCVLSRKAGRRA

T2: human NGF (human, UniProt P01138 122-241)
T2 construct: also called human Nerve Growth Factor; hN
T2 chain: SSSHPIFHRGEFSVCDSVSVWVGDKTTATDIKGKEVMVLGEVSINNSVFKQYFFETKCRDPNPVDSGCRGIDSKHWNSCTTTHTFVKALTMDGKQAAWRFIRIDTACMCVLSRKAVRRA

B1: can48L2VL_D93A (antibody, V domains shown)
VH: EVQLVESGGDLVKPGGSLRLSCVASGFTFSTYGINWVRQAPGKGLQWVAYISSGGSSTYYADPVKGRFTISRDDAKNMLYLQMNSLRAEDTAIYYCAGSRYTYAYGGGYEFHFWGQGTLVTVSS
VL: QAVLNQPASVSGALGQKVTISCSGSTMDIDIFGVSWYQQLPGKAPKLLVDSDGDRPSGIPDRFSGSRSGNSGTLTITGLQAEDEADYHCQSGASTLGALAIFGGGTHVTVL
notes: CDR scanning mutant of ZTS-842 (48L2)
B2: can48L2VL_L99A (antibody, V domains shown)
VH: EVQLVESGGDLVKPGGSLRLSCVASGFTFSTYGINWVRQAPGKGLQWVAYISSGGSSTYYADPVKGRFTISRDDAKNMLYLQMNSLRAEDTAIYYCAGSRYTYAYGGGYEFHFWGQGTLVTVSS
VL: QAVLNQPASVSGALGQKVTISCSGSTMDIDIFGVSWYQQLPGKAPKLLVDSDGDRPSGIPDRFSGSRSGNSGTLTITGLQAEDEADYHCQSGDSTLGAAAIFGGGTHVTVL
notes: as for B1
B3: can48L2VL_G92A (antibody, V domains shown)
VH: EVQLVESGGDLVKPGGSLRLSCVASGFTFSTYGINWVRQAPGKGLQWVAYISSGGSSTYYADPVKGRFTISRDDAKNMLYLQMNSLRAEDTAIYYCAGSRYTYAYGGGYEFHFWGQGTLVTVSS
VL: QAVLNQPASVSGALGQKVTISCSGSTMDIDIFGVSWYQQLPGKAPKLLVDSDGDRPSGIPDRFSGSRSGNSGTLTITGLQAEDEADYHCQSADSTLGALAIFGGGTHVTVL
notes: as for B1
B4: can48L2VL_L96A (antibody, V domains shown)
VH: EVQLVESGGDLVKPGGSLRLSCVASGFTFSTYGINWVRQAPGKGLQWVAYISSGGSSTYYADPVKGRFTISRDDAKNMLYLQMNSLRAEDTAIYYCAGSRYTYAYGGGYEFHFWGQGTLVTVSS
VL: QAVLNQPASVSGALGQKVTISCSGSTMDIDIFGVSWYQQLPGKAPKLLVDSDGDRPSGIPDRFSGSRSGNSGTLTITGLQAEDEADYHCQSGDSTAGALAIFGGGTHVTVL
notes: as for B1
B5: can48L2VL_S94A (antibody, V domains shown)
VH: EVQLVESGGDLVKPGGSLRLSCVASGFTFSTYGINWVRQAPGKGLQWVAYISSGGSSTYYADPVKGRFTISRDDAKNMLYLQMNSLRAEDTAIYYCAGSRYTYAYGGGYEFHFWGQGTLVTVSS
VL: QAVLNQPASVSGALGQKVTISCSGSTMDIDIFGVSWYQQLPGKAPKLLVDSDGDRPSGIPDRFSGSRSGNSGTLTITGLQAEDEADYHCQSGDATLGALAIFGGGTHVTVL
notes: as for B1
B6: can48L2VL_F32A (antibody, V domains shown)
VH: EVQLVESGGDLVKPGGSLRLSCVASGFTFSTYGINWVRQAPGKGLQWVAYISSGGSSTYYADPVKGRFTISRDDAKNMLYLQMNSLRAEDTAIYYCAGSRYTYAYGGGYEFHFWGQGTLVTVSS
VL: QAVLNQPASVSGALGQKVTISCSGSTMDIDIAGVSWYQQLPGKAPKLLVDSDGDRPSGIPDRFSGSRSGNSGTLTITGLQAEDEADYHCQSGDSTLGALAIFGGGTHVTVL
notes: as for B1
B7: can48L2VL_S51A (antibody, V domains shown)
VH: EVQLVESGGDLVKPGGSLRLSCVASGFTFSTYGINWVRQAPGKGLQWVAYISSGGSSTYYADPVKGRFTISRDDAKNMLYLQMNSLRAEDTAIYYCAGSRYTYAYGGGYEFHFWGQGTLVTVSS
VL: QAVLNQPASVSGALGQKVTISCSGSTMDIDIFGVSWYQQLPGKAPKLLVDADGDRPSGIPDRFSGSRSGNSGTLTITGLQAEDEADYHCQSGDSTLGALAIFGGGTHVTVL
notes: as for B1
B8: can48L2VL_G33A (antibody, V domains shown)
VH: EVQLVESGGDLVKPGGSLRLSCVASGFTFSTYGINWVRQAPGKGLQWVAYISSGGSSTYYADPVKGRFTISRDDAKNMLYLQMNSLRAEDTAIYYCAGSRYTYAYGGGYEFHFWGQGTLVTVSS
VL: QAVLNQPASVSGALGQKVTISCSGSTMDIDIFAVSWYQQLPGKAPKLLVDSDGDRPSGIPDRFSGSRSGNSGTLTITGLQAEDEADYHCQSGDSTLGALAIFGGGTHVTVL
notes: as for B1
B9: can48L2VL_I31A (antibody, V domains shown)
VH: EVQLVESGGDLVKPGGSLRLSCVASGFTFSTYGINWVRQAPGKGLQWVAYISSGGSSTYYADPVKGRFTISRDDAKNMLYLQMNSLRAEDTAIYYCAGSRYTYAYGGGYEFHFWGQGTLVTVSS
VL: QAVLNQPASVSGALGQKVTISCSGSTMDIDAFGVSWYQQLPGKAPKLLVDSDGDRPSGIPDRFSGSRSGNSGTLTITGLQAEDEADYHCQSGDSTLGALAIFGGGTHVTVL
notes: as for B1
B10: can48L2VL_G97A (antibody, V domains shown)
VH: EVQLVESGGDLVKPGGSLRLSCVASGFTFSTYGINWVRQAPGKGLQWVAYISSGGSSTYYADPVKGRFTISRDDAKNMLYLQMNSLRAEDTAIYYCAGSRYTYAYGGGYEFHFWGQGTLVTVSS
VL: QAVLNQPASVSGALGQKVTISCSGSTMDIDIFGVSWYQQLPGKAPKLLVDSDGDRPSGIPDRFSGSRSGNSGTLTITGLQAEDEADYHCQSGDSTLAALAIFGGGTHVTVL
notes: as for B1
B11: can48L2VL_I101A (antibody, V domains shown)
VH: EVQLVESGGDLVKPGGSLRLSCVASGFTFSTYGINWVRQAPGKGLQWVAYISSGGSSTYYADPVKGRFTISRDDAKNMLYLQMNSLRAEDTAIYYCAGSRYTYAYGGGYEFHFWGQGTLVTVSS
VL: QAVLNQPASVSGALGQKVTISCSGSTMDIDIFGVSWYQQLPGKAPKLLVDSDGDRPSGIPDRFSGSRSGNSGTLTITGLQAEDEADYHCQSGDSTLGALAAFGGGTHVTVL
notes: as for B1
B12: can48L2VL_I29A (antibody, V domains shown)
VH: EVQLVESGGDLVKPGGSLRLSCVASGFTFSTYGINWVRQAPGKGLQWVAYISSGGSSTYYADPVKGRFTISRDDAKNMLYLQMNSLRAEDTAIYYCAGSRYTYAYGGGYEFHFWGQGTLVTVSS
VL: QAVLNQPASVSGALGQKVTISCSGSTMDADIFGVSWYQQLPGKAPKLLVDSDGDRPSGIPDRFSGSRSGNSGTLTITGLQAEDEADYHCQSGDSTLGALAIFGGGTHVTVL
notes: as for B1
B13: can48L2VL_S91A (antibody, V domains shown)
VH: EVQLVESGGDLVKPGGSLRLSCVASGFTFSTYGINWVRQAPGKGLQWVAYISSGGSSTYYADPVKGRFTISRDDAKNMLYLQMNSLRAEDTAIYYCAGSRYTYAYGGGYEFHFWGQGTLVTVSS
VL: QAVLNQPASVSGALGQKVTISCSGSTMDIDIFGVSWYQQLPGKAPKLLVDSDGDRPSGIPDRFSGSRSGNSGTLTITGLQAEDEADYHCQAGDSTLGALAIFGGGTHVTVL
notes: as for B1
B14: can48L2VL_M27A (antibody, V domains shown)
VH: EVQLVESGGDLVKPGGSLRLSCVASGFTFSTYGINWVRQAPGKGLQWVAYISSGGSSTYYADPVKGRFTISRDDAKNMLYLQMNSLRAEDTAIYYCAGSRYTYAYGGGYEFHFWGQGTLVTVSS
VL: QAVLNQPASVSGALGQKVTISCSGSTADIDIFGVSWYQQLPGKAPKLLVDSDGDRPSGIPDRFSGSRSGNSGTLTITGLQAEDEADYHCQSGDSTLGALAIFGGGTHVTVL
notes: as for B1
B15: can48L2VL_G53A (antibody, V domains shown)
VH: EVQLVESGGDLVKPGGSLRLSCVASGFTFSTYGINWVRQAPGKGLQWVAYISSGGSSTYYADPVKGRFTISRDDAKNMLYLQMNSLRAEDTAIYYCAGSRYTYAYGGGYEFHFWGQGTLVTVSS
VL: QAVLNQPASVSGALGQKVTISCSGSTMDIDIFGVSWYQQLPGKAPKLLVDSDADRPSGIPDRFSGSRSGNSGTLTITGLQAEDEADYHCQSGDSTLGALAIFGGGTHVTVL
notes: as for B1
B16: can48L2VL_Q90A (antibody, V domains shown)
VH: EVQLVESGGDLVKPGGSLRLSCVASGFTFSTYGINWVRQAPGKGLQWVAYISSGGSSTYYADPVKGRFTISRDDAKNMLYLQMNSLRAEDTAIYYCAGSRYTYAYGGGYEFHFWGQGTLVTVSS
VL: QAVLNQPASVSGALGQKVTISCSGSTMDIDIFGVSWYQQLPGKAPKLLVDSDGDRPSGIPDRFSGSRSGNSGTLTITGLQAEDEADYHCASGDSTLGALAIFGGGTHVTVL
notes: as for B1

Legend:
Assay in all cases: SPR (Biacore T200), 100 nM mAb on NGF chip, similarity to parent mAb
canine NGF = molecular target: T1, canine NGF
Outline: (§1)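 CDR alanine-scan mutants of the anti-NGF mAb were each run at 100 nM over an NGF-coated Biacore T200 chip. A threshold band was set from the mean response units of four parent-mAb replicates ±3 SD, covering both on- and off-rate phases. The score is the percentage of each mutant's data points falling inside that band.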

rat NGF = molecular target: T3, rat NGF (rat, UniProt P25427 122-241)
T3 construct: also called rN
Outline: as §1

human NGF = molecular target: T2, human NGF
Outline: as §1

T3 sequence (P25427 122-241 limits assumed): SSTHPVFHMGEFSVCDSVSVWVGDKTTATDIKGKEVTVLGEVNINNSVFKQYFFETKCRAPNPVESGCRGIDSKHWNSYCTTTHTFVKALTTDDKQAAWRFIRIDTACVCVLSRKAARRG

Binder | Percent Similarity Score (KD on cN) (canine NGF) [%] | Percent Similarity Score (KD on rN) (rat NGF) [%] | Percent Similarity Score (KD on hN) (human NGF) [%]
B1 | 98.7 | 99.5 | 99.9
B2 | 96.8 | 98.4 | 99.8
B3 | 93.6 | 97 | 99.3
B4 | 90 | 93.2 | 99.9
B5 | 97.8 | 99.3 | 100
B6 | 19.6 | 66 | 44.3
B7 | 100 | 100 | 100
B8 | 17.5 | 21.2 | 56.6
B9 | 32.9 | 39.9 | 86.2
B10 | 92.4 | 99.6 | 100
B11 | 97.3 | 99.6 | 100
B12 | 47 | 57.2 | 97.8
B13 | 59.6 | 76.7 | 97.5
B14 | 28 | 37.9 | 72.1
B15 | 100 | 100 | 100
B16 | 94.4 | 98.7 | 99.9
